Test results taken from US20170158742A1 (NATIONAL UNIVERSITY OF SINGAPORE, published 2017).

What follows are binders tested against biotinylated full-length Dengue virus capsid (DENV C) protein (Dengue virus serotype 2 (NGC strain)) (assay: ELISA, coated bought protein, biotinylated DENV C as probe, streptavidin-HRP).

Row | Binder | binding result
1 | Signal recognition particle 19kDa (other, also called SRP19) MACAAARSPADQDRFICIYPAYLNNKKTIAEGRRIPISKAVENPTATEIQDVCSAVGLNVFLEKNKMYSREWNRDVQYRGRVRVQLKQEDGSLCLVQFPSRKSVMLYAAEMIPKLKTRTQKTGGADQSLQQGEGSKKGKGKKKK | binds
2 | Vaccinia related kinase 1 (enzyme, also called VRK1) MPRVKAAQAGRQSSAKRHLAEQFAVGEIITDMAKKEWKVGLPIGQGGFGCIYLADMNSSESVGSDAPCVVKVEPSDNGPLFTELKFYQRAAKPEQIQKWIRTRKLKYLGVPKYWGSGLHDKNGKSYRFMIMDRFGSDLQKIYEANAKRFSRKTVLQLSLRILDILEYIHEHEYVHGDIKASNLLLNYKNPDQVYLVDYGLAYRYCPEGVHKEYKEDPKRCHDGTIEFTSIDAHNGVAPSRRGDLEILGYCMIQWLTGHLPWEDNLKDPKYVRDSKIRYRENIASLMDKCFPEKNKPGEIAKYMETVKLLDYTEKPLYENLRDILLQGLKAIGSKDDGKLDLSVVENGGLKAKTITKKRKKEIEESKEPGVEDTEWSNTQTEEAIQTRSRTRKRVQK | binds
3 | DIM1 dimethyladenosine transferase 1 homolog (S. cerevisiae) (enzyme, also called DIMT1) MPKVKSGAIGRRRGRQEQRRELKSAGGLMFNTGIGQHILKNPLIINSIIDKAALRPTDVVLEVGPGTGNMTVKLLEKAKKVVACELDPRLVAELHKRVQGTPVASKLQVLVGDVLKTDLPFFDTCVANLPYQISSPFVFKLLLHRPFFRCAILMFQREFALRLVAKPGDKLYCRLSINTQLLARVDHLMKVGKNNFRPPPKVESSVVRIEPKNPPPPINFQEWDGLVRITFVRKNKTLSAAFKSSAVQQLLEKNYRIHCSVHNIIIPEDFSIADKIQQILTSTGFSDKRARSMDIDDFIRLLHGFNAEGIHFS | binds
